For assay [1], the target named is HUI77, murine IgM anti-denatured-collagen monoclonal antibody. Kind of assay: competition ELISA on coated dn-collagen IV. For orientation: An ELISA detects its analyte on a solid surface through an enzyme-linked reagent.
For assay [2], the target named is D93, recombinant humanized IgG1 kappa antibody targeting denatured-collagen. Kind of assay: competition ELISA on coated human dn-collagen IV.

Square brackets hold non-standard residues; d marks the D form. Ends that are not written are not given here. Hyp = O=C(O)[C@@H]1C[C@@H](O)CN1

D93, recombinant humanized IgG1 kappa antibody targeting denatured-collagen, sequence (heavy, as listed by the source, chain 1 of 2): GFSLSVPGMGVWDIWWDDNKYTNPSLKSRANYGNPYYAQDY
D93, recombinant humanized IgG1 kappa antibody targeting denatured-collagen, sequence (light, as listed by the source, chain 2 of 2): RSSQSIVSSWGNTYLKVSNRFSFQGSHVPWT

In assay [1], GPPGPPG (also: hydroxyproline at marked P positions, if any, marking lost) [synthetic peptide No. 23, GPPGPPG (SEQ ID NO: 33)] showed a % inhibition of HUI77 binding to dn-collagen IV, peptide 10 µM of 1.5%; a % inhibition of HUI77 binding to dn-collagen IV, peptide 100 µM of 2%; a % inhibition of HUI77 binding to dn-collagen IV, peptide 1000 µM of 1%. In assay [2], the % inhibition of D93 binding to dn-collagen IV, peptide 1 µM stood at 5%; the % inhibition of D93 binding to dn-collagen IV, peptide 10 µM turned out to be 4.5%; the % inhibition of D93 binding to dn-collagen IV, peptide 100 µM was 1.5%; the % inhibition of D93 binding to dn-collagen IV, peptide 1000 µM was found to be 6.5%.

B1: synthetic peptide No. 15, GPPGPPG (SEQ ID NO: 32) (peptide)
peptide: GPXGPXG
modifications: contains hydroxyproline ('where P is hydroxyproline'); positions marked in the tables but lost in this text
With B1, in assay [1], the % inhibition of HUI77 binding to dn-collagen IV, peptide 10 µM was found to be 6%; the % inhibition of HUI77 binding to dn-collagen IV, peptide 100 µM came out at 7.5%; the % inhibition of HUI77 binding to dn-collagen IV, peptide 1000 µM is 77%. In addition, in assay [2], the % inhibition of D93 binding to dn-collagen IV, peptide 1 µM came to 8%; the % inhibition of D93 binding to dn-collagen IV, peptide 10 µM came to 17%; the % inhibition of D93 binding to dn-collagen IV, peptide 100 µM came to 64%; the % inhibition of D93 binding to dn-collagen IV, peptide 1000 µM was 92.5%.

In the case of F[Hyp]GP[Hyp]GPDGL[Hyp]GSMGP[Hyp]G [synthetic peptide No. 7, … (SEQ ID NO: 36)], in assay [1], the % inhibition of HUI77 binding to dn-collagen IV, peptide 10 µM was 4.5%; the % inhibition of HUI77 binding to dn-collagen IV, peptide 100 µM was found to be 9%; the % inhibition of HUI77 binding to dn-collagen IV, peptide 1000 µM stood at 62%. In assay [2], the % inhibition of D93 binding to dn-collagen IV, peptide 1 µM worked out at 11%; the % inhibition of D93 binding to dn-collagen IV, peptide 10 µM was 43%; the % inhibition of D93 binding to dn-collagen IV, peptide 100 µM came to 89.5%; the % inhibition of D93 binding to dn-collagen IV, peptide 1000 µM came out at 93.5%.

In assay [1], GPPG (also: hydroxyproline marking, if any, lost) [synthetic peptide No. 22, GPPG (SEQ ID NO: 35)] yielded a % inhibition of HUI77 binding to dn-collagen IV, peptide 10 µM of 2.5%; a % inhibition of HUI77 binding to dn-collagen IV, peptide 100 µM of 8%; a % inhibition of HUI77 binding to dn-collagen IV, peptide 1000 µM of 3.5%. Further, in assay [2], the % inhibition of D93 binding to dn-collagen IV, peptide 1 µM came out at 7%; the % inhibition of D93 binding to dn-collagen IV, peptide 10 µM worked out at 6%; the % inhibition of D93 binding to dn-collagen IV, peptide 100 µM was 3.5%; the % inhibition of D93 binding to dn-collagen IV, peptide 1000 µM is 7.5%.

Take [Hyp]GAKGLPGP[Hyp]GP[Hyp]GPY [synthetic peptide No. 12, … (SEQ ID NO: 2)]: in assay [1], the % inhibition of HUI77 binding to dn-collagen IV, peptide 10 µM came out at 7.5%; the % inhibition of HUI77 binding to dn-collagen IV, peptide 100 µM was 18%; the % inhibition of HUI77 binding to dn-collagen IV, peptide 1000 µM was determined as 86.5%. In addition, in assay [2], the % inhibition of D93 binding to dn-collagen IV, peptide 1 µM was 30%; the % inhibition of D93 binding to dn-collagen IV, peptide 10 µM came to 81%; the % inhibition of D93 binding to dn-collagen IV, peptide 100 µM turned out to be 93.5%; the % inhibition of D93 binding to dn-collagen IV, peptide 1000 µM was 93.5%.

In assay [1], LPGFPGC (also: hydroxyproline marking, if any, lost) [synthetic peptide No. 9, LPGFPGC (SEQ ID NO: 37)] yielded a % inhibition of HUI77 binding to dn-collagen IV, peptide 10 µM of 7%; a % inhibition of HUI77 binding to dn-collagen IV, peptide 100 µM of 7.5%; a % inhibition of HUI77 binding to dn-collagen IV, peptide 1000 µM of 8.5%. In assay [2], the % inhibition of D93 binding to dn-collagen IV, peptide 1 µM is 8%; the % inhibition of D93 binding to dn-collagen IV, peptide 10 µM was 3.5%; the % inhibition of D93 binding to dn-collagen IV, peptide 100 µM amounted to 1%; the % inhibition of D93 binding to dn-collagen IV, peptide 1000 µM amounted to 6.5%.

In assay [1], L[Hyp]GS[Hyp]G [synthetic peptide No. 10, LPGSPG (SEQ ID NO: 26)] showed a % inhibition of HUI77 binding to dn-collagen IV, peptide 10 µM of 8%; a % inhibition of HUI77 binding to dn-collagen IV, peptide 100 µM of 10.5%; a % inhibition of HUI77 binding to dn-collagen IV, peptide 1000 µM of 8.5%. In assay [2], the % inhibition of D93 binding to dn-collagen IV, peptide 1 µM is 9.5%; the % inhibition of D93 binding to dn-collagen IV, peptide 10 µM came to 3.5%; the % inhibition of D93 binding to dn-collagen IV, peptide 100 µM was 2.5%; the % inhibition of D93 binding to dn-collagen IV, peptide 1000 µM worked out at 13.5%.

Turning to PGP[Hyp]GP[Hyp]GP [synthetic peptide No. 1, … (SEQ ID NO: 29)], in assay [1], the % inhibition of HUI77 binding to dn-collagen IV, peptide 10 µM was 10.5%; the % inhibition of HUI77 binding to dn-collagen IV, peptide 100 µM came to 12.5%; the % inhibition of HUI77 binding to dn-collagen IV, peptide 1000 µM was determined as 63%. Also, in assay [2], the % inhibition of D93 binding to dn-collagen IV, peptide 1 µM was 11.5%; the % inhibition of D93 binding to dn-collagen IV, peptide 10 µM was found to be 40.5%; the % inhibition of D93 binding to dn-collagen IV, peptide 100 µM amounted to 87.5%; the % inhibition of D93 binding to dn-collagen IV, peptide 1000 µM was 93.5%.

In assay [1], L[Hyp]GT[Hyp]G [synthetic peptide No. 8, LPGTPG (SEQ ID NO: 27)] gave a % inhibition of HUI77 binding to dn-collagen IV, peptide 10 µM of 3.5%; a % inhibition of HUI77 binding to dn-collagen IV, peptide 100 µM of 4.5%; a % inhibition of HUI77 binding to dn-collagen IV, peptide 1000 µM of 6%. Also, in assay [2], the % inhibition of D93 binding to dn-collagen IV, peptide 1 µM worked out at 7%; the % inhibition of D93 binding to dn-collagen IV, peptide 10 µM came to 2%; the % inhibition of D93 binding to dn-collagen IV, peptide 100 µM amounted to 4.5%; the % inhibition of D93 binding to dn-collagen IV, peptide 1000 µM amounted to 24%.

[Hyp]GAKGLPGP [synthetic peptide No. 13, … (SEQ ID NO: 17)]: in assay [1], the % inhibition of HUI77 binding to dn-collagen IV, peptide 10 µM came out at 8%; the % inhibition of HUI77 binding to dn-collagen IV, peptide 100 µM was 10.5%; the % inhibition of HUI77 binding to dn-collagen IV, peptide 1000 µM was 10%. In assay [2], the % inhibition of D93 binding to dn-collagen IV, peptide 1 µM is 11%; the % inhibition of D93 binding to dn-collagen IV, peptide 10 µM was 6%; the % inhibition of D93 binding to dn-collagen IV, peptide 100 µM worked out at 4%; the % inhibition of D93 binding to dn-collagen IV, peptide 1000 µM is 11.5%.

B2: synthetic peptide No. 17, GPPGPPGP (SEQ ID NO: 31) (peptide)
peptide: GPXGPXGP
modifications: hydroxyproline at the P positions marked in Tables 13 and 14; marking lost in this text
In assay [1], B2 yielded a % inhibition of HUI77 binding to dn-collagen IV, peptide 10 µM of 7.5%; a % inhibition of HUI77 binding to dn-collagen IV, peptide 100 µM of 12%; a % inhibition of HUI77 binding to dn-collagen IV, peptide 1000 µM of 44%. Moreover, in assay [2], the % inhibition of D93 binding to dn-collagen IV, peptide 1 µM amounted to 9.5%; the % inhibition of D93 binding to dn-collagen IV, peptide 10 µM was determined as 21%; the % inhibition of D93 binding to dn-collagen IV, peptide 100 µM came out at 77%; the % inhibition of D93 binding to dn-collagen IV, peptide 1000 µM was determined as 92.5%.

In assay [1], LPGP[Hyp]GP[Hyp]GP [synthetic peptide No. 5, … (SEQ ID NO: 20)] displayed a % inhibition of HUI77 binding to dn-collagen IV, peptide 10 µM of 10%; a % inhibition of HUI77 binding to dn-collagen IV, peptide 100 µM of 14%; a % inhibition of HUI77 binding to dn-collagen IV, peptide 1000 µM of 73%. For the same molecule, in assay [2], the % inhibition of D93 binding to dn-collagen IV, peptide 1 µM is 12%; the % inhibition of D93 binding to dn-collagen IV, peptide 10 µM is 41.5%; the % inhibition of D93 binding to dn-collagen IV, peptide 100 µM came out at 89%; the % inhibition of D93 binding to dn-collagen IV, peptide 1000 µM was found to be 92.5%.

In assay [1], PGP[Hyp]GP[Hyp]GPY [synthetic peptide No. 4, … (SEQ ID NO: 28)] came in with a % inhibition of HUI77 binding to dn-collagen IV, peptide 10 µM of 7%; a % inhibition of HUI77 binding to dn-collagen IV, peptide 100 µM of 16%; a % inhibition of HUI77 binding to dn-collagen IV, peptide 1000 µM of 86.5%. Besides, in assay [2], the % inhibition of D93 binding to dn-collagen IV, peptide 1 µM is 33.5%; the % inhibition of D93 binding to dn-collagen IV, peptide 10 µM amounted to 83%; the % inhibition of D93 binding to dn-collagen IV, peptide 100 µM was found to be 93.5%; the % inhibition of D93 binding to dn-collagen IV, peptide 1000 µM amounted to 93.5%.

The record behind these values is patent US20080008707A1, “Denatured collagen peptides and uses thereof” (Cell-Matrix, Inc., priority 2006, published 2008).
